From patent publication US20220348651A1 (Novartis, published 2022)
Where a chain is given by its changes, count along the chain named.

B1: ANTI-HUMAN ENTPD2 MAB1 (antibody, human IgG1, kappa)
heavy: not shown
light: DIQLTQSPSSLSASVGDRVTITCSASSSVSYIHWFQQKPGKAPKLLIYSTSNLASGVPSRFSGSGSGTFFTLTISSLQPEDFATYFCHQWSSYPWTFGQGTKVEIKRTVAAPSVFIFPPSDEQLKSGTASVVCLLNNFYPREAKVQWKVDNALQSGNSQESVTEQDSKDSTYSLSSTLTLSKADYEKHKVYACEVTHQGLSSPVTKSFNRGEC
notes: humanized from mAb17; human IgG1, kappa; also called anti-ENTPD2 mAb1
B2: ANTI-HUMAN ENTPD2 MAB2 (antibody, human IgG1, kappa)
heavy: not shown
light: EIVLTQSPATLSASPGERITLSCSASSSVSYIHWYQQKPGQAPRLLIYSTSNLASGIPARFSGSGSGTFYTLTISSVEPEDAAVYYCHQWSSYPWTFGGGTKLEIKRTVAAPSVFIFPPSDEQLKSGTASVVCLLNNFYPREAKVQWKVDNALQSGNSQESVTEQDSKDSTYSLSSTLTLSKADYEKHKVYACEVTHQGLSSPVTKSFNRGEC
notes: humanized from mAb17; human IgG1, kappa; also called Anti-ENTPD2 mAb2
B3: ANTI-HUMAN ENTPD2 MAB3 (antibody, human IgG1, kappa, V domains shown)
VH: QVQLVQSGAEVVKPGASVKISCKASGYTFTDYNMDWVKQAPGQRLEWIGDINPKYDISTYNQQFKGKATITVDTSASTAYMELSSLRSEDTAVYYCARRGFFLYYGINYYYFDVWGQGTLVTVSS
VL: EIVLTQSPATLSASPGERITLSCSASSSVSYIHWYQQKPGQAPRLLIYSTSNLASGIPARFSGSGSGTFYTLTISSVEPEDAAVYYCHQWSSYPWTFGGGTKLEIKR
notes: humanized from mAb17; human IgG1, kappa; also called Anti-ENTPD2 mAb3
B4: ANTI-HUMAN ENTPD2 MAB7 (antibody, human IgG1, kappa)
heavy: not shown
light: B2 light with R18E
notes: humanized from mAb17; human IgG1, kappa; also called Anti-ENTPD2 mAb7
B5: ANTI-HUMAN ENTPD2 MAB4 (antibody, human IgG1, kappa, V domains shown)
VH: QIQLQESGPGLVKPSQTLSLTCTVSGYSITSGYYWNWIRQHPGKGLEWIGYISYDADNNYNPSLKNRVTISRDTSKNQFSLKLSSVTAADTAVYYCAGGYYRYGLGSYRGSYYYVMDYWGQGTTVTVSS
VL: ETVLTQSPATLSVSPGERATISCKASQSVDYEGHSYMNWYQQKPGQAPRLLIYAASNLESGIPARFSGSGSGTDFTLTISSVEPEDAATYYCQQSNEDPPTFGGGTKLEIKR
notes: humanized and optimized from mAb16; human IgG1, kappa; also called Anti-ENTPD2 mAb4
B6: ANTI-HUMAN ENTPD2 MAB5 (antibody, human IgG1, kappa, V domains shown)
VH: B5 VH
VL: B5 VL with E32D, H34N
notes: humanized and optimized from mAb16; human IgG1, kappa; also called Anti-ENTPD2 mAb5
B7: ANTI-HUMAN ENTPD2 MAB6 (antibody, human IgG1, kappa, V domains shown)
VH: B5 VH with I2V, I49M, V68I, R109S
VL: DTQMTQSPSSLSVSVGDRATITCKASQSVDYEGHSYMNWYQQKPGKAPKLLIYAASNLESGVPSRFSGSGSGTDFTLTISSVQPEDFATYYCQQSNEDPPTFGGGTKLEIKR
notes: humanized and optimized from mAb16; human IgG1, kappa; also called Anti-ENTPD2 mAb6
B8: ANTI-HUMAN ENTPD2 MAB8 (antibody, human IgG1, lambda, V domains shown)
VH: QVQLQQSGPGLVKPSQTLSLTCAISGDSVSSSSAAWNWIRQSPSRGLEWLGRIYYRSKWYNDYAVSVKSRITINPDTSKNQFSLQLNSVTPEDTAVYYCARGSYVTSSYEGFDYWGQGTLVTVSS
VL: SYELTQPLSVSVALGQTARITCSGDNLPEKYAYWYQQKPGQAPVLVIYDDNKRPSGIPERFSGSNSGNTATLTISRAQAGDEADYYCQSYGKWGWTWVFGGGTKLTVLG
notes: also called Anti-ENTPD2 mAb8
B9: ANTI-HUMAN ENTPD2 MAB9 (antibody, human IgG1, lambda, V domains shown)
VH: QVQLVQSGAEVKKPGSSVKVSCKASGGTFDSYAVSWVRQAPGQGLEWMGRIVPWLGHTQYAQKFQGRVTITADESTSTAYMELSSLRSEDTAVYYCARESPGYRYSFDVWDQGTLVTVSS
VL: SYELTQPLSVSVALGQTARITCSGDAIGEKYVYWYQQKPGQAPVLVIYDDNNRPSGIPERFSGSNSGNTATLTISRAQAGDEADYYCASYDLQQARWVFGGGTKLTVLG
notes: also called Anti-ENTPD2 mAb9
B10: ANTI-HUMAN ENTPD2 MAB10 (antibody, human IgG1, lambda, V domains shown)
VH: B9 VH with H57F, Q59R
VL: B9 VL
notes: also called Anti-ENTPD2 mAb10

target: T1, ENTPD3 of H520 cells (UniProt O75355 1-529, limits assumed); experiment: flow cytometry, H520 cells
T1 construct: whole, on cells
T1 sequence (looked up): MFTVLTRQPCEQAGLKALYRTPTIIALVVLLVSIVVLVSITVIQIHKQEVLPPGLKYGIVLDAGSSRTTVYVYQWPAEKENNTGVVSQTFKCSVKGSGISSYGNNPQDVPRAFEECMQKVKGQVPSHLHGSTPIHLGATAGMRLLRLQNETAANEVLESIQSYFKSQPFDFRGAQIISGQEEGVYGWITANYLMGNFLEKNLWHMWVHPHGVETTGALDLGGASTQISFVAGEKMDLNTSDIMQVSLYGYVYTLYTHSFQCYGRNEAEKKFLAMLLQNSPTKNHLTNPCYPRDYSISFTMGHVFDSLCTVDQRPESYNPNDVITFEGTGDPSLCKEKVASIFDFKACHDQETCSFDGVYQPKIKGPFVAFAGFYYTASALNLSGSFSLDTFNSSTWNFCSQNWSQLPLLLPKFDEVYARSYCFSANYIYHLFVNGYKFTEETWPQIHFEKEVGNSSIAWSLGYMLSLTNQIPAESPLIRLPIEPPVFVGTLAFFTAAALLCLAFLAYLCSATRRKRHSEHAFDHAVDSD

Binder	binding result
B1	no binding (tested: 50 nM)
B2	no binding (tested: 50 nM)
B3	no binding (tested: 50 nM)
B4	no binding (tested: 50 nM)
B5	no binding (tested: 50 nM)
B6	no binding (tested: 50 nM)
B7	no binding (tested: 50 nM)
B8	no binding (tested: 50 nM)
B9	no binding (tested: 50 nM)
B10	no binding (tested: 50 nM)

target: T2, ENTPD8 of H520 cells (UniProt Q5MY95 1-495, limits assumed); experiment: flow cytometry, H520 cells
T2 construct: whole, on cells
T2 sequence (looked up): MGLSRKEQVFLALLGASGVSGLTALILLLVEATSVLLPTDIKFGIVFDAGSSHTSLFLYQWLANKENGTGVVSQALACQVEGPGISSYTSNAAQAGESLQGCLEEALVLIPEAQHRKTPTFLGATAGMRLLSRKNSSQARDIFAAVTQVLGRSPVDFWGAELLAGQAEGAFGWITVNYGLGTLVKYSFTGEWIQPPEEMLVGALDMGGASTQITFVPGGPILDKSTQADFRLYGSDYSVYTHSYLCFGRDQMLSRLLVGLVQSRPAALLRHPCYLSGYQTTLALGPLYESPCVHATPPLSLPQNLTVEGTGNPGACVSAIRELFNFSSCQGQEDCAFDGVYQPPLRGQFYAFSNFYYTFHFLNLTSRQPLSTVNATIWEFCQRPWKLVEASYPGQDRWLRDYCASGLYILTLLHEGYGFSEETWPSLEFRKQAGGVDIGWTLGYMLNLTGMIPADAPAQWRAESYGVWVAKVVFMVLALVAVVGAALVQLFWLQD

Binder	binding result
B1	no binding (tested: 50 nM)
B2	no binding (tested: 50 nM)
B3	no binding (tested: 50 nM)
B4	no binding (tested: 50 nM)
B5	no binding (tested: 50 nM)
B6	no binding (tested: 50 nM)
B7	no binding (tested: 50 nM)
B8	no binding (tested: 50 nM)
B9	no binding (tested: 50 nM)
B10	no binding (tested: 50 nM)

target: T3, Human ENTPD1 (NP_001767) expressed on NIH/3T3 cells (human, UniProt P49961 1-510); experiment: flow cytometry, NIH/3T3-ENTPD1 cells
T3 construct: also called NIH/3T3-ENTPD1; CD39
T3 sequence: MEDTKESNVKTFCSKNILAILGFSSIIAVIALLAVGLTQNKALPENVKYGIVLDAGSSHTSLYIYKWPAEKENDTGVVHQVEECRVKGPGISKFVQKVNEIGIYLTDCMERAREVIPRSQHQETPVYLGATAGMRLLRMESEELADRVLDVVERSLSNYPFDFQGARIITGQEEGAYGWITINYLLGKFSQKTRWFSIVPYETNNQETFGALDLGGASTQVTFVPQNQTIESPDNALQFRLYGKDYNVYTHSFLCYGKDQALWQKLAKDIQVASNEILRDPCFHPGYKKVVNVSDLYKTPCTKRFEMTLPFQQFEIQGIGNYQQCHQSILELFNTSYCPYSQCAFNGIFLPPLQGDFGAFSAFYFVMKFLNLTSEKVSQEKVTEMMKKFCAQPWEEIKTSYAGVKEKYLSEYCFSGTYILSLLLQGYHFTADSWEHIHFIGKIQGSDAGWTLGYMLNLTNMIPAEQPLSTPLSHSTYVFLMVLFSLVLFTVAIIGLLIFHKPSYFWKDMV

Binder	binding result
B1	no binding (tested: 50 nM)
B2	no binding (tested: 50 nM)
B3	no binding (tested: 50 nM)
B4	no binding (tested: 50 nM)
B5	no binding (tested: 50 nM)
B6	no binding (tested: 50 nM)
B7	no binding (tested: 50 nM)
B9	no binding (tested: 50 nM)
B10	no binding (tested: 50 nM)

Target: T4, cyno ENTPD2 expressed on NIH/3T3 cells (cynomolgus macaque, UniProt Q9Y5L3 1-495 (human entry))
T4 construct: also called NIH3T3 cynoENTPD2; Cyno ENTPD2 NIH/3T3
T4 chain: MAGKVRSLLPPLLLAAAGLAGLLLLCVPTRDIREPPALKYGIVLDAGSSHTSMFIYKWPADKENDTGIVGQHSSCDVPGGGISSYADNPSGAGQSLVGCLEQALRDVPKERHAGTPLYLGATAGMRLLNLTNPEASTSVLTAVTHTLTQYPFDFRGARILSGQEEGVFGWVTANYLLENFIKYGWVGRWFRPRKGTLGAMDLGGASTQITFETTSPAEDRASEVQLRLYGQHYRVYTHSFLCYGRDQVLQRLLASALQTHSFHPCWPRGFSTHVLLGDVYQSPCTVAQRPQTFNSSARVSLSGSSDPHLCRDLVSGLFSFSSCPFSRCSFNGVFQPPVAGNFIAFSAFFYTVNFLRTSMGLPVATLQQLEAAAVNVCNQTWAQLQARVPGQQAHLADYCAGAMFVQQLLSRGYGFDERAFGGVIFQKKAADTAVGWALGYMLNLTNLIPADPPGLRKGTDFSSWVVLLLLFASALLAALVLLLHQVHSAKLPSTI
Experiment: flow cytometry, NIH3T3 cyno ENTPD2 cells

Binder	EC50 [nM]
B1	3.3
B2	4.2
B3	5.4
B4	0.8
B5	6.1
B6	5.2
B7	7
B8	2.1
B9	1.3
B10	1.7

target: T5, human ENTPD2 expressed on cells (human, UniProt Q9Y5L3 1-495); experiment: flow cytometry, RKO cells (endogenous ENTPD2)
T5 construct: full-length human ENTPD2 on engineered cells; also called NIH3T3 humanENTPD2; NIH/3T3-hENTPD2
T5 sequence: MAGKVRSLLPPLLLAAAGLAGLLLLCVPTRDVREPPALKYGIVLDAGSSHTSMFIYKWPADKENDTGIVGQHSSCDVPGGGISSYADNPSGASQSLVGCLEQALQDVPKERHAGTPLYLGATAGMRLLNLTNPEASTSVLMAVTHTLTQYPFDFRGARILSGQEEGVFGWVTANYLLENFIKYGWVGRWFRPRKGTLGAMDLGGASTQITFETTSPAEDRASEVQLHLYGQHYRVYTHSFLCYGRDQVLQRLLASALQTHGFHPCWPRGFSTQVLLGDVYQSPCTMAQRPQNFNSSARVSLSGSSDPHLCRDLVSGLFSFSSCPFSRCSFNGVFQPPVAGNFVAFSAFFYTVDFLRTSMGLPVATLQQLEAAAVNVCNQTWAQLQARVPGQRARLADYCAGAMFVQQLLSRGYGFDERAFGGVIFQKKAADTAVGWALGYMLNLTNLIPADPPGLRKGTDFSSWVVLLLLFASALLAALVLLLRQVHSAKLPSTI
Procedure: FACS screening: Specific binding of candidate antibodies to endogenously expressed ENTPD2 was assessed by flow cytometry. […] Geometric mean fluorescence intensity was calculated on live single cells using FlowJo software.

Binder	EC50 [nM]
B1	0.9
B2	1.3
B3	2.1
B4	0.4
B5	0.5
B6	0.4
B7	0.4
B8	0.3
B9	0.5
B10	0.6
